Source: patent publication US20090036647A1, “BITORAN WHICH IS TRYPSIN-INHIBITOR-LIKE PROTEIN DERIVED FROM BITIS ARIETANS VENOM, AND USE THEREOF AS BLOOD COAGULATION FACTOR Xa INHIBITOR” (NEC SOFT, LTD., priority 2005, published 2009)

Key:
[1] = molecular target: T1, human blood coagulation factor Xa (Homo sapiens, UniProt P00742); assay: cell-based or functional assay
Target sequence in this assay (P00742 41-488 limits assumed): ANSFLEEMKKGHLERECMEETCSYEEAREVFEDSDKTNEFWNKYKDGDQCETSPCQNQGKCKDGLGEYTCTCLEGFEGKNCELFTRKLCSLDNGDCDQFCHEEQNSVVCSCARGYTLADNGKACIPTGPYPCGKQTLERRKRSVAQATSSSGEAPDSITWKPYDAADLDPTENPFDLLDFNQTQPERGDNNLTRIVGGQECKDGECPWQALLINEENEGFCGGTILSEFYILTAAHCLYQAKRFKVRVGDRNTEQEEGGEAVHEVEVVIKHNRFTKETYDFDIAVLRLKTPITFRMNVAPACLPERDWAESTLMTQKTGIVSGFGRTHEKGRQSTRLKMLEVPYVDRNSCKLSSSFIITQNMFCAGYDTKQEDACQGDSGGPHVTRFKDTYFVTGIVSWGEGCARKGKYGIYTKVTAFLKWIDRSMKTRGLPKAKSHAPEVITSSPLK

[2] = molecular target: T1, human blood coagulation factor Xa; assay: Inhibition of the serine protease activity of human blood coagulation factor Xa (chromogenic substrate LGR-pNA); type: biochemical; conditions: 0.3 μM human factor Xa, 15 min at 37° C. preincubation, synthetic substrate LGR-pNA, Tris-HCl buffered saline pH8.0; from V/V0 curves of FIG. 4; read-out: 50% inhibition concentration (IC50) against serine protease activity of factor Xa
Procedure: Crude venom of Bitis arietans arietans purchased from LATOXAN was dissolved in Tris-HCl buffer (50 mM Tris-HCl pH 8.0) to prepare 2 mL of a crude venom solution (in concentration of 250 mg/mL). The crude venom solution was applied to Superdex 200 pg gel permeation column (φ2.6 cm×L 60 cm) equilibrated with the Tris-HCl buffer (50 mM Tris-HCl pH 8.0) at a flow rate of 2 mL/min. Two mL aliquots of the series of eluted fractions were collected, and each eluted fraction was determined for the presence of inhibitory activity against the serine protease activity of blood coagulation factor Xa. In the assay for inhibitory activity specific to the serine protease activity of blood coagulation factor Xa, a synthetic substrate Boc-leucyl-glycil-L-arginyl-p-nitroanilide hydrochloride was used to determine a concentration of a reaction product formed by truncation at the C-terminal side of an arginine residue by protease activity of blood coagulation factor Xa (Cproduct: concentration of p-nitroaniline), and then from a product concentration without addition of a test substance: Cproduct0 and a product concentration with addition of a test substance: Cproduct, an inhibitory rate was calculated as (Cproduct0−Cproduct)/Cproduct0. […]
Target sequence in this assay (P00742 235-488 limits assumed): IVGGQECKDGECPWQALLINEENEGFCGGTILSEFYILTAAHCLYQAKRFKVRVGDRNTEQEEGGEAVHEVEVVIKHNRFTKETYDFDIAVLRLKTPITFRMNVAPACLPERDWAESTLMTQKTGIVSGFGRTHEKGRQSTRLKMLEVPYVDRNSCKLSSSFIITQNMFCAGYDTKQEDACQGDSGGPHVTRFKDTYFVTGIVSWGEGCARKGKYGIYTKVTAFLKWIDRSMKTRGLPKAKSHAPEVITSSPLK
Target sequence in this assay (P00742 41-179 partner limits assumed): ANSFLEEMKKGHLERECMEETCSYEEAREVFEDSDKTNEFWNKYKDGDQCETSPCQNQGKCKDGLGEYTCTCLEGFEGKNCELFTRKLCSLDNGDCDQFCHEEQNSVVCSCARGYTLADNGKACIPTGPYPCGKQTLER

| Molecule | 50% inhibition concentration (IC50) of factor Xa protease activity (V/V0), cleavage of synthetic substrate LGR-pNA [1] [M] | IC50 [2] [nM] |
| --- | --- | --- |
| SBTI (Soybean Trypsin Inhibitor; MW=20.1 kDa) (from UniProt P01070 25-205) | 3e-07 |  |
| bitoran V (protein) CRQNRPDFCYLPAVEGPCRAYIRSFFYNSTSNECEKFFYGGCYGNANKFETRDECRKTCVASA |  | 20 |
| SBTI: Trypsin inhibitor substance from plant; Kunitz-type trypsin inhibitor from soybean, MW=20.1 kDa, positive control (protein, UniProt P01070 25-205, looked up) Trypsin inhibitor A: DFVLDNEGNPLENGGTYYILSDITAFGGIRAAPTGNERCPLTVVQSRNELDKGIGTIISSPYRIRFIAEGHPLSLKFDSFAVIMLCVGIPTEWSVVEDLPEGPAVKIGENKDAMDGWFRLERVSDDEFNNYKLVFCPQQAEDDKCGDIGISIDHDDGTRRLVVSKNKPLVVQFQKLDKESL |  | 300 |
